Assay results as given in article PMC2754721 (Biochemistry, 2009).

Biological target: the molecule itself
Assay: crystal structure

| Protein | stoichiometry N [subunits] |
| --- | --- |
| D402N nitroalkane oxidase (enzyme) MVDFKLSPSQLEARRHAQAFANTVLTKASAEYSTQKDQLSRFQATRPFYREAVRHGLIKAQVPIPLGGTMESLVHESIILEELFAVEPATSITIVATALGLMPVILCDSPSLQEKFLKPFISGEGEPLASLMHSEPNGTANWLQKGGPGLQTTARKVGNEWVISGEKLWPSNSGGWDYKGADLACVVCRVSDDPSKPQDPNVDPATQIAVLLVTRETIANNKKDAYQILGEPELAGHITTSGPHTRFTEFHVPHENLLCTPGLKAQGLVETAFAMSAALVGAMAIGTARAAFEEALVFAKSDTRGGSKHIIEHQSVADKLIDCKIRLETSRLLVWKAVTTLEDEALEWKVKLEMAMQTKIYTTDVAVECVIDAMKAVGMKSYAKDMSFPRLLNEVMCYPLFNGGNIGLRRRQMQRVMALEDYEPWAATYGSSKVDKSRL | 4 |
| S276A nitroalkane oxidase (enzyme) MVDFKLSPSQLEARRHAQAFANTVLTKASAEYSTQKDQLSRFQATRPFYREAVRHGLIKAQVPIPLGGTMESLVHESIILEELFAVEPATSITIVATALGLMPVILCDSPSLQEKFLKPFISGEGEPLASLMHSEPNGTANWLQKGGPGLQTTARKVGNEWVISGEKLWPSNSGGWDYKGADLACVVCRVSDDPSKPQDPNVDPATQIAVLLVTRETIANNKKDAYQILGEPELAGHITTSGPHTRFTEFHVPHENLLCTPGLKAQGLVETAFAMAAALVGAMAIGTARAAFEEALVFAKSDTRGGSKHIIEHQSVADKLIDCKIRLETSRLLVWKAVTTLEDEALEWKVKLEMAMQTKIYTTDVAVECVIDAMKAVGMKSYAKDMSFPRLLNEVMCYPLFDGGNIGLRRRQMQRVMALEDYEPWAATYGSSKVDKSRL | 4 |
